Results: IntAct's records for PubMed 29426014

B1: Ubiquitin-protein ligase (Homo sapiens), Q05086-2 (parent)
chain: MKRAAAKHLIERYYHQLTEGCGNEACTNEFCASCPTFLRMDNNAAAIKALELYKINAKLCDPHPSKKGASSAYLENSKGAPNNSCSEIKMNKKGARIDFKDVTYLTEEKVYEILELCREREDYSPLIRVIGRVFSSAEALVQSFRKVKQHTKEELKSLQAKDEDKDEDEKEKAACSAAAMEEDSEASSSRIGDSSQGDNNLQKLGPDDVSVDIDAIRRVYTRLLSNEKIETAFLNALVYLSPNVECDLTYHNVYSRDPNYLNLFIIVMENRNLHSPEYLEMALPLFCKAMSKLPLAAQGKLIRLWSKYNADQIRRMMETFQQLITYKVISNEFNSRNLVNDDDAIVAASKCLKMVYYANVVGGEVDTNHNEEDDEEPIPESSELTLQELLGEERRNKKGPRVDPLETELGVKTLDCRKPLIPFEEFINEPLNEVLEMDKDYTFFKVETENKFSFMTCPFILNAVTKNLGLYYDNRIRMYSERRITVLYSLVQGQQLNPYLRLKVRRDHIIDDALVRLEMIAMENPADLKKQLYVEFEGEQGVDEGGVSKEFFQLVVEEIFNPDIGMFTYDESTKLFWFNPSSFETEGQFTLIGIVLGLAIYNNCILDVHFPMVVYRKLMGKKGTFRDLGDSHPVLYQSLKDLLEYEGNVEDDMMITFQISQTDLFGNPMMYDLKENGDKIPITNENRKEFVNLYSDYILNKSVEKQFKAFRRGFHMVTNESPLKYLFRPEEIELLICGSRNLDFQALEETTEYDGGYTRDSVLIREFWEIVHSFTDEQKRLFLQFTTGTDRAPVGGLGKLKMIIAKNGPDTERLPTSHTCFNVLLLPEYSSKEKLKERLLKAITYAKGFGML
partner: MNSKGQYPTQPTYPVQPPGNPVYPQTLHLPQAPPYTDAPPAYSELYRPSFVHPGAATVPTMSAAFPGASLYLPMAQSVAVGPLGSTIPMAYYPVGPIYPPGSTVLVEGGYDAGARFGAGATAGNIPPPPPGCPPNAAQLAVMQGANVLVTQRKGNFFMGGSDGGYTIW
B2: Ubiquitin-protein ligase (Homo sapiens), Q05086-2 (parent)
chain: B1 chain
partner: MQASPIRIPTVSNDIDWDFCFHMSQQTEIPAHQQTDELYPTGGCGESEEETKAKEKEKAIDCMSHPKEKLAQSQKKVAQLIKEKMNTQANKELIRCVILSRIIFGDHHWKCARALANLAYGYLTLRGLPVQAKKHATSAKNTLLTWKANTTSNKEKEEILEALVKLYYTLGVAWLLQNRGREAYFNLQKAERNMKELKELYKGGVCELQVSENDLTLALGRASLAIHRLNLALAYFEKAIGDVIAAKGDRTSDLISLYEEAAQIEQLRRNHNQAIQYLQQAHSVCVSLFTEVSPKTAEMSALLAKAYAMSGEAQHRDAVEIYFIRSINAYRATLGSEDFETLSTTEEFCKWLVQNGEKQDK
B3: Ubiquitin-protein ligase (Homo sapiens), Q05086-2 (parent)
chain: B1 chain
partner: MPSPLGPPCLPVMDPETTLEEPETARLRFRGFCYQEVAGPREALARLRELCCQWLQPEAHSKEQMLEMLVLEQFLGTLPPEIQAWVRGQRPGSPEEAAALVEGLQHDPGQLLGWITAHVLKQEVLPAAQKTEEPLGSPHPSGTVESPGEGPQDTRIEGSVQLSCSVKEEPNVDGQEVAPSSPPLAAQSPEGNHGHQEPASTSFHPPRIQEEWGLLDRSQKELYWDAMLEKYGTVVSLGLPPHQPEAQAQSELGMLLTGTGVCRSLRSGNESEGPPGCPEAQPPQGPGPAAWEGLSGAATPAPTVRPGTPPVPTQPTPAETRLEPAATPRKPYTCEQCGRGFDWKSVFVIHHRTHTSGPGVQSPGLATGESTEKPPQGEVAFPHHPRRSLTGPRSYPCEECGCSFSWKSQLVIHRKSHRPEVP
B4: Ubiquitin-protein ligase (Homo sapiens), Q05086-2 (parent)
chain: B1 chain
partner: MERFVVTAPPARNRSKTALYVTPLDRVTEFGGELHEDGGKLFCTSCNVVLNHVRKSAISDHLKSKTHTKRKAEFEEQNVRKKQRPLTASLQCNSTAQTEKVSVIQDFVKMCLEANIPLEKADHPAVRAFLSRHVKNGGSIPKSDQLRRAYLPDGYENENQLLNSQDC
B5: Ubiquitin-protein ligase (Homo sapiens), Q05086-3 (parent)
chain: MATACKRSGEPQSDDIEASRMKRAAAKHLIERYYHQLTEGCGNEACTNEFCASCPTFLRMDNNAAAIKALELYKINAKLCDPHPSKKGASSAYLENSKGAPNNSCSEIKMNKKGARIDFKDVTYLTEEKVYEILELCREREDYSPLIRVIGRVFSSAEALVQSFRKVKQHTKEELKSLQAKDEDKDEDEKEKAACSAAAMEEDSEASSSRIGDSSQGDNNLQKLGPDDVSVDIDAIRRVYTRLLSNEKIETAFLNALVYLSPNVECDLTYHNVYSRDPNYLNLFIIVMENRNLHSPEYLEMALPLFCKAMSKLPLAAQGKLIRLWSKYNADQIRRMMETFQQLITYKVISNEFNSRNLVNDDDAIVAASKCLKMVYYANVVGGEVDTNHNEEDDEEPIPESSELTLQELLGEERRNKKGPRVDPLETELGVKTLDCRKPLIPFEEFINEPLNEVLEMDKDYTFFKVETENKFSFMTCPFILNAVTKNLGLYYDNRIRMYSERRITVLYSLVQGQQLNPYLRLKVRRDHIIDDALVRLEMIAMENPADLKKQLYVEFEGEQGVDEGGVSKEFFQLVVEEIFNPDIGMFTYDESTKLFWFNPSSFETEGQFTLIGIVLGLAIYNNCILDVHFPMVVYRKLMGKKGTFRDLGDSHPVLYQSLKDLLEYEGNVEDDMMITFQISQTDLFGNPMMYDLKENGDKIPITNENRKEFVNLYSDYILNKSVEKQFKAFRRGFHMVTNESPLKYLFRPEEIELLICGSRNLDFQALEETTEYDGGYTRDSVLIREFWEIVHSFTDEQKRLFLQFTTGTDRAPVGGLGKLKMIIAKNGPDTERLPTSHTCFNVLLLPEYSSKEKLKERLLKAITYAKGFGML
B6: Ubiquitin-protein ligase (Homo sapiens), Q05086-3 (parent)
chain: B5 chain
partner: B1 partner
B7: Ubiquitin-protein ligase (Homo sapiens), Q05086-3 (parent)
chain: B5 chain
partner: B2 partner
B8: Ubiquitin-protein ligase (Homo sapiens), Q05086-3 (parent)
chain: B5 chain
partner: B3 partner
B9: Ubiquitin-protein ligase (Homo sapiens), Q05086-3 (parent)
chain: B5 chain
partner: B4 partner

Variants of: B1
Settings: with DAZAP2, Q15038-1

| effect of a mutation on the interaction | Variant |
| --- | --- |
| causing an interaction | C820A |

Variants of: B2
Settings: with TTC23L

| effect of a mutation on the interaction | Variant |
| --- | --- |
| causing an interaction | C820A |

Variants of: B3
Settings: with ZNF446, Q9NWS9-2

| effect of a mutation on the interaction | Variant |
| --- | --- |
| causing an interaction | C820A |

Variants of: B4
Settings: with cgbp1_human CGGBP1, Q9UFW8

| effect of a mutation on the interaction | Variant |
| --- | --- |
| causing an interaction | C820A |

Variants of: B5
Settings: with ZNF250, P15622-3
Chain of ZNF250, P15622-3 (P15622 other isoform, or with tags, fused parts or gaps): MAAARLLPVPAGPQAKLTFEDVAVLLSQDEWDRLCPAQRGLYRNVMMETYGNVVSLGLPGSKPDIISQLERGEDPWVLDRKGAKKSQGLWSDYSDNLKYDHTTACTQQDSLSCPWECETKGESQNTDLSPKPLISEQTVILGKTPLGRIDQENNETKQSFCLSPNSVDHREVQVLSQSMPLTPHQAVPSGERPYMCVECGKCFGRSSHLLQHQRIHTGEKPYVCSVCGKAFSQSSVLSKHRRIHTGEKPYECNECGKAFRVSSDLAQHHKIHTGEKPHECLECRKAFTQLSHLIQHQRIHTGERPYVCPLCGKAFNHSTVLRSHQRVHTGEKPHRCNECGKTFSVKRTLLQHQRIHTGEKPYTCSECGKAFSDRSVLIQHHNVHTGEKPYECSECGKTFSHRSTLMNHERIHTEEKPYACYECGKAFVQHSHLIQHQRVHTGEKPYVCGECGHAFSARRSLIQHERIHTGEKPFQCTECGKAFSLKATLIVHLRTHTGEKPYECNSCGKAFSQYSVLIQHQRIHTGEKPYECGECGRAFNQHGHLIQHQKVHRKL

| effect of a mutation on the interaction | Variant |
| --- | --- |
| causing an interaction | C840A |

Variants of: B5
Settings: with PAX6, P26367-1
Chain of PAX6, P26367-1 (P26367 whole entry): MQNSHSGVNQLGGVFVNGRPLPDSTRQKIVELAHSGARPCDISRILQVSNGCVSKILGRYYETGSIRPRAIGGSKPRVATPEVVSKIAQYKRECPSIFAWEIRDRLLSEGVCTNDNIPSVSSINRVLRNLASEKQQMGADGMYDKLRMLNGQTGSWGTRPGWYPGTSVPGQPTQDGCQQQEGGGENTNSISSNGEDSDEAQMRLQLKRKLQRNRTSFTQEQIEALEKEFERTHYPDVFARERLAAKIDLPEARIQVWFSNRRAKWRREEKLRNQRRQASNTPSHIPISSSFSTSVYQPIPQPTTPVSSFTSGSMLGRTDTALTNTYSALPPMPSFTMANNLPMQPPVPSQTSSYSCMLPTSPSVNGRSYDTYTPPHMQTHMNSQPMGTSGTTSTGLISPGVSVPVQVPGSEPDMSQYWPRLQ

| effect of a mutation on the interaction | Variant |
| --- | --- |
| causing an interaction | C840A |

Variants of: B5
Settings: with magac_human MAGEA12, P43365
Chain of magac_human MAGEA12, P43365 (P43365 whole entry): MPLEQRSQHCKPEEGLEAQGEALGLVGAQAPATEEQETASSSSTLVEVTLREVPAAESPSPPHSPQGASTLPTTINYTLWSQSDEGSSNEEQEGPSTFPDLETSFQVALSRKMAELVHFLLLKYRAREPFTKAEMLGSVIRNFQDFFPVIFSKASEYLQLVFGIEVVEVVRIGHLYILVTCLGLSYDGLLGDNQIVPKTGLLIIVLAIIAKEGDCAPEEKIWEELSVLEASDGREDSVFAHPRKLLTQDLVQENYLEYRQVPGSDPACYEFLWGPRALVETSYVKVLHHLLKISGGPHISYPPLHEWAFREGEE

| effect of a mutation on the interaction | Variant |
| --- | --- |
| with no effect | C840A |

Variants of: B5
Settings: with PSMD4, P55036-1
Chain of PSMD4, P55036-1 (P55036 whole entry): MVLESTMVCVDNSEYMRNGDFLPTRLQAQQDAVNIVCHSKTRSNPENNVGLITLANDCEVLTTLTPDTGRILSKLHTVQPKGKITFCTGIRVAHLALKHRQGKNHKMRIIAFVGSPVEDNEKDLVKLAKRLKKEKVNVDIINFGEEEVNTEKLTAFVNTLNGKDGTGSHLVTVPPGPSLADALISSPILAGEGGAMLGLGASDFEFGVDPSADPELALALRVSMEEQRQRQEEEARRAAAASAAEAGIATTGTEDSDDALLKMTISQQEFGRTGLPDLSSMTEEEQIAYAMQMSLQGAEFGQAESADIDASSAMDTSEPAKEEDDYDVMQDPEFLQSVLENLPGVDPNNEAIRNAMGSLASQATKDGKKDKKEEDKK

| effect of a mutation on the interaction | Variant |
| --- | --- |
| with no effect | C840A |

Variants of: B5
Settings: with PAX5, Q02548-1
Chain of PAX5, Q02548-1 (Q02548 whole entry): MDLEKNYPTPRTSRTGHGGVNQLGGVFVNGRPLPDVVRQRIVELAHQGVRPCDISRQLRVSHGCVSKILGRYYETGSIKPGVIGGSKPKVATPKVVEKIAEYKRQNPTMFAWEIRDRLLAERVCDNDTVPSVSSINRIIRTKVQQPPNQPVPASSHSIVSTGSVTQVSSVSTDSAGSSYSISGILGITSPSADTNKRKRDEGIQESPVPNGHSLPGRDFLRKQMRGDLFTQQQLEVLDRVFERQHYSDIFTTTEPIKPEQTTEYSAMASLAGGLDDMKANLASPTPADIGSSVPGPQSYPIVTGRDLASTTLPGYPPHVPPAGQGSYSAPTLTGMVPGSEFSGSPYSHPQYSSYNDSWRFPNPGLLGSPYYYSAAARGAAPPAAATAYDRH

| effect of a mutation on the interaction | Variant |
| --- | --- |
| causing an interaction | C840A |

Variants of: B5
Settings: with PTCD3, Q96EY7-1

| effect of a mutation on the interaction | Variant |
| --- | --- |
| with no effect | C840A |

Variants of: B5
Settings: with ubql2_human UBQLN2, Q9UHD9
Chain of ubql2_human UBQLN2, Q9UHD9 (Q9UHD9 whole entry): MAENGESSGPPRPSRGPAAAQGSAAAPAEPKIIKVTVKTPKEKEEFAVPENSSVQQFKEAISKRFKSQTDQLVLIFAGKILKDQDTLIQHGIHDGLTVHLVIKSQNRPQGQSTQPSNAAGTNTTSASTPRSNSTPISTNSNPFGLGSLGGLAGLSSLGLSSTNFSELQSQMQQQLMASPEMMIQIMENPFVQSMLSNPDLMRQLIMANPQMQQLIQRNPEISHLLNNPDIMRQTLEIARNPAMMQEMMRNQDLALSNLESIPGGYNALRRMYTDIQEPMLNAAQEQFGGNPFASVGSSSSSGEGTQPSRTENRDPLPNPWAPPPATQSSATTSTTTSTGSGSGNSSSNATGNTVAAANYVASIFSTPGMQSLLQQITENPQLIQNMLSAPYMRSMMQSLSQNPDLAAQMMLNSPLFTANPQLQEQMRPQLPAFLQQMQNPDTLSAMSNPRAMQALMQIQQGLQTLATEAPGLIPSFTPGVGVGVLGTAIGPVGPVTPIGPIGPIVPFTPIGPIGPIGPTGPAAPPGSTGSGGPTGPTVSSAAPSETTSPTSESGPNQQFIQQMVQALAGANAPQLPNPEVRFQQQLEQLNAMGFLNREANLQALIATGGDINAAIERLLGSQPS

| effect of a mutation on the interaction | Variant |
| --- | --- |
| with no effect | C840A |

Variants of: B5
Settings: with UBQLN1, Q9UMX0-1
Chain of UBQLN1, Q9UMX0-1 (Q9UMX0 whole entry): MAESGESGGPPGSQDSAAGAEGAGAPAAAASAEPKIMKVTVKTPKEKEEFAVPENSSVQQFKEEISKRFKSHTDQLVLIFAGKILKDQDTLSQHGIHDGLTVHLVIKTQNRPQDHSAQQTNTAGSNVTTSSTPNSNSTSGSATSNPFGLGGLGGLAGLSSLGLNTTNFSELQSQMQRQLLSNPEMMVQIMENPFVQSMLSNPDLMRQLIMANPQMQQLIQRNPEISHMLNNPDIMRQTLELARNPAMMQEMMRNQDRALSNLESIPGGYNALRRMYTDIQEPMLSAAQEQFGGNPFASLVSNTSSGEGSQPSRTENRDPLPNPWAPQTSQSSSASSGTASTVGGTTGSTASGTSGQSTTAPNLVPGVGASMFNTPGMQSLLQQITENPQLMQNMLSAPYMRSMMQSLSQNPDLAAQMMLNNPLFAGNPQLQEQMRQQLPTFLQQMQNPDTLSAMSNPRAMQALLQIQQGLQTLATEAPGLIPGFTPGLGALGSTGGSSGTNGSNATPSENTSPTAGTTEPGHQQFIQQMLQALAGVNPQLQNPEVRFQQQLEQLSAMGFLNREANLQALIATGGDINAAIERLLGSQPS

| effect of a mutation on the interaction | Variant |
| --- | --- |
| with no effect | C840A |

Variants of: B6
Settings: with DAZAP2, Q15038-1

| effect of a mutation on the interaction | Variant |
| --- | --- |
| causing an interaction | C840A |

Variants of: B7
Settings: with TTC23L

| effect of a mutation on the interaction | Variant |
| --- | --- |
| causing an interaction | C840A |

Variants of: B8
Settings: with ZNF446, Q9NWS9-2

| effect of a mutation on the interaction | Variant |
| --- | --- |
| causing an interaction | C840A |

Variants of: B9
Settings: with cgbp1_human CGGBP1, Q9UFW8

| effect of a mutation on the interaction | Variant |
| --- | --- |
| causing an interaction | C840A |
